Reference: patent US20210388081A1 (Memorial Sloan Kettering, published 2021)

T1: Fc Receptor-like 5 (FcRL5), full length, overexpressed on 3T3 or Raji cells (human, UniProt Q96RD9 16-977)
T1 construct: also called 3T3-FcRL5
T1 sequence: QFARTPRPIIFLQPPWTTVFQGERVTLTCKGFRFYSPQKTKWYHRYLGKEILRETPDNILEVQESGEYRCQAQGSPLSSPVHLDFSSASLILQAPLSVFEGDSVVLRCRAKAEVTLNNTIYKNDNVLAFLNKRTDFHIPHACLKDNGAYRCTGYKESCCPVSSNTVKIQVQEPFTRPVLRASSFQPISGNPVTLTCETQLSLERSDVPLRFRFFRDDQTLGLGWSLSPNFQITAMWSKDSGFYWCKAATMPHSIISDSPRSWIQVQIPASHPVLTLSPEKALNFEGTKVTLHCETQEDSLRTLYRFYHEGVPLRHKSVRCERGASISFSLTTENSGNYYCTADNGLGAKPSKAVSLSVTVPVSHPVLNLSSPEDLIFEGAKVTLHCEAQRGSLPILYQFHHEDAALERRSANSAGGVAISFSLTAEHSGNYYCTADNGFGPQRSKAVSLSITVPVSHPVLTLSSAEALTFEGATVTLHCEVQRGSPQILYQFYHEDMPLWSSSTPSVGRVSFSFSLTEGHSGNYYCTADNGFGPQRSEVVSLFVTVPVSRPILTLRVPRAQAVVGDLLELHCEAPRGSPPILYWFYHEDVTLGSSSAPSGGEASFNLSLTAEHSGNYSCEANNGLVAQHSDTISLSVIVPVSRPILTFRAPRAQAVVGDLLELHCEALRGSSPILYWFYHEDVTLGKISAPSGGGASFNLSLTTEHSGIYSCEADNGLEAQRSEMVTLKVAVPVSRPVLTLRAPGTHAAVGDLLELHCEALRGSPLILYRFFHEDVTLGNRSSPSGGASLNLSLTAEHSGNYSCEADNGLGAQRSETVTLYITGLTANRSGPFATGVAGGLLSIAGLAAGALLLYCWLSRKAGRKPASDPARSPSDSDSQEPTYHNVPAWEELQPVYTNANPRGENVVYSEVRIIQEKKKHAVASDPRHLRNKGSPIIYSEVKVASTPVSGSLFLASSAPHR

T2: FcRL2, overexpressed on 3T3 cells (UniProt Q96LA5 20-508, limits assumed)
T2 construct: whole, on cells
T2 sequence (looked up): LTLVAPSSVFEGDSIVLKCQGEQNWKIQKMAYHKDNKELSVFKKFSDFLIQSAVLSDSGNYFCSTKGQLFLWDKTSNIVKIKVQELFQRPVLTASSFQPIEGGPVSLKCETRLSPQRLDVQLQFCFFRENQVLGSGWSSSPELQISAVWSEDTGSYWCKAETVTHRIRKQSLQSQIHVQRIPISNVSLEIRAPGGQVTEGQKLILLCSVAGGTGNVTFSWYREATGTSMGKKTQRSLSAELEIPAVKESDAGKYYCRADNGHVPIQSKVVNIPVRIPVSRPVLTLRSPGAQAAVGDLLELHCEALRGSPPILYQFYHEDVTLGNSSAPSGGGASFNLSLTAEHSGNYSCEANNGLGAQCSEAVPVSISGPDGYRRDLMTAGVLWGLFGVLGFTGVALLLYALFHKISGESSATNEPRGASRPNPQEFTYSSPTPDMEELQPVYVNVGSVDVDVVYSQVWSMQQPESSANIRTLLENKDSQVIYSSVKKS

T3: FcRL4, overexpressed on 3T3 cells (UniProt Q96PJ5 20-515, limits assumed)
T3 construct: whole, on cells
T3 sequence (looked up): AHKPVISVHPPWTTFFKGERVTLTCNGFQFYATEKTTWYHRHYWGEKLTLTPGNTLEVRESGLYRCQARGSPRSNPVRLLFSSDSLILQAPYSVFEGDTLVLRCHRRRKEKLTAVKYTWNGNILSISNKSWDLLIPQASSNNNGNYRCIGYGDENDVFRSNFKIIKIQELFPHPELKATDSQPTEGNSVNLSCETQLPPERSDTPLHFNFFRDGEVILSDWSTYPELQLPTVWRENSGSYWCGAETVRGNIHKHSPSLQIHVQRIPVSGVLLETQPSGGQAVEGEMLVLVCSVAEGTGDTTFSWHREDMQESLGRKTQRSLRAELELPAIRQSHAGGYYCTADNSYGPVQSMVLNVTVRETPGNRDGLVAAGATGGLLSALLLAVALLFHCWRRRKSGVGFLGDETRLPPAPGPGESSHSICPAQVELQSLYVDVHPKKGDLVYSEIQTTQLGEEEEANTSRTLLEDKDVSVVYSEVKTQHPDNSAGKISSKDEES

T4: FcRL6, overexpressed on 3T3 cells (UniProt Q6DN72 20-434, limits assumed)
T4 construct: whole, on cells
T4 sequence (looked up): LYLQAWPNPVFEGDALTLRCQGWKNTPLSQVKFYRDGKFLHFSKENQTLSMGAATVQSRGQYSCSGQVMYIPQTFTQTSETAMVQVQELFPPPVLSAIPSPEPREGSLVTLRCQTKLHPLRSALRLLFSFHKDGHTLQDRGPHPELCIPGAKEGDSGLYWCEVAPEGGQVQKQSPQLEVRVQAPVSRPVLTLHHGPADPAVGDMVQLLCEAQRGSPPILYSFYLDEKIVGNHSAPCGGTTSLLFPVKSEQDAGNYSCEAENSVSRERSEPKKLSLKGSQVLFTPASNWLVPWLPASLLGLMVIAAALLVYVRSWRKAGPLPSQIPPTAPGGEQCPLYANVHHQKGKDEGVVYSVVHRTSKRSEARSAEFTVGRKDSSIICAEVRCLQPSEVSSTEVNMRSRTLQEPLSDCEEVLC

B1: ET200-013 (scFv)
scFv: QSVVTQPPSVSGAPGQRVTISCTGSTSNIGAGYDVHWYQQLPGTAPKLLIYTNNFRPSGVPDRFSASKSGTSASLAITGLQAEDEADYYCGTWDSSLSAVVFGGGTKLTVLGSRGGGGSGGGGSGGGGSLEMAEVQLVESGTEVKKPGASVKVSCKASGYMFTSYGLNWVRQAPGQGLEWMGWISANNGKTNYAKKFQDRVTMTRDTSTSTGYMELRSLRSDDTAVYYCARHIGGSYFDRWGQGTLVTVSSTSGQAGQHHHHHHGAYPYDVPDYAS
notes: screened as phage clone; entry is VL-linker-VH-His tag-HA tag
B2: ET200-017 (scFv)
scFv: SYVLTQPPSVSVAPGKTARITCGGNNIGSKSVHWYQQKPGQAPVLVVYDDSDRPSGIPERFSGSNSGNTATLSISRVEAGDEADYYCQVWDSSSDHTVFGTGTKVTVLGSRGGGGSGGGGSGGGGSLEMAQVQLQQWGAGLLKPSETLSLTCAVYGGSFSGYYWSWIRQPPGKGLEWIGEINHSGSTNYNPSLKSRVTISVDTSKNQFSLKLSSVTAADTAVYYCARYYPGMDMWGQGTLVTVSSTSGQAGQHHHHHHGAYPYDVPDYAS
notes: as for B1
B3: ET200-012 (scFv)
scFv: QSVLTQPPSVSAAAGQKVTISCSGSDSNIGNNYVSWYQHLPGTAPKLLIYDVKNRPSGIPDRFSGSKSGSSATLGIAGLQPGDEADYYCGTWDSRLDAYVFGTGTKVTVLGSRGGGGSGGGGSGGGGSLEMAQMQLVQSGAEVKKPGASVKVSCKTSGFPFNIFGITWVRQAPGQGLEWMGWISGYNGNTDYPQKFQGRVTMSTDTSTSTAYMELRNLKSDDTAVYYCARGAYGGMDTWGQGTLVTVSSTSGQAGQHHHHHHGAYPYDVPDYAS
notes: as for B1
B4: ET200-018 (scFv)
scFv: QAVLTQPPSTSGTPGQRVTISCSGSSSNIGRNGVNWYQQLPGAAPKVLIYNDNQRPSGVPDRVSGSQSGSSGTLAIDGLRSEDEADYYCAAWDDSLHGVVFGGGTKLTVLGSRGGGGSGGGGSGGGGSLEMAQVQLVQSGAEVKKPGASVKVSCKVSGYTLNELSMHWVRQAPGKGLEWMGGFDPEDGETIYAQKFQGRVTMTEDTSTDTAYMELSSLRSEDTAVYYCARGGYGDSWGQGTLVTVSSTSGQAGQHHHHHHGAYPYDVPDYAS
notes: as for B1
B5: ET200-016 (scFv)
scFv: SSELTQDPAVSVALGQTVKITCQGDSLTDYHATWYQQKPGQAPVAVIYATNNRPTGIPDRFSGSSSGNTASLTITGAQAEDEADYYCNSRDSGTDEVLFGGGTKLTVLGSRGGGGSGGGGSGGGGSLEMAEVQLVETGGGLVKPGGSLRLSCAASGFTFSSYSMNWVRQAPGKGLEWVSSISSSSSYIYYADSVKGRFTISRDNAKNSLYLQMNSLRAEDTAVYYCARGQGYDYWGQGTLVTVSSTSGQAGQHHHHHHGAYPYDVPDYAS
notes: as for B1
B6: ET200-015 (scFv)
scFv: QSVVTQPPSVSVAPGKTARITCGGNNIGSKSVHWYQQKPGQAPVLVIYYDSDRPSGIPERFSGSNSGNTATLTISRVEAGDEADYYCQVWDSSSDVVFGGGTKLTVLGSRGGGGSGGGGSGGGGSLEMAEVQLVQSGAEVKKPGASVKVSCKASGYTFTSYGISWVRQAPGQGLEWMGWISAYNGNTNYAQKLQGRVTMTTDTSTSTAYMELRSLRSDDTAVYYCARWGGFGAVDHWGQGTLVTVSSTSGQAGQHHHHHHGAYPYDVPDYAS
notes: as for B1
B7: ET200-011 (scFv)
scFv: QSVVTQPPSVSAAPGQRVTISCSGSSSNISIYDVSWYQQLPGTAPKLLIYGNNKRPSGIADRFSGSTSGTSATLGITGLQTGDEADYYCGTWDDSLSGGVFGGGTKLTVLGSRGGGGSGGGGSGGGGSLEMAQMQLVQSGAEVKKPGSSVKVSCEASGGTLSSYAINWVRQAPGQGLEWMGGIIPMFGTAHYAQKFQGRVTITADESTKTAYMELSSLRSEDTAVYYCARGVHYASFDHWGQGTLVTVSSTSGQAGQHHHHHHGAYPYDVPDYAS
notes: as for B1
B8: ET200-014 (scFv)
scFv: SYVLTQPPSVSVAPGKTARITCGGNNIGSKSVHWYQQKPGQAPVLVIYYDSDRPSGIPERFSGSNSGNTATLTISRVEAGDEADYYCQVWDSSSDHYVFGTGTKVTVLGSRGGGGSGGGGSGGGGSLEMAEVQLVETGGGLVQPGGSLRLSCAASGFTFSSYAMSWVRQAPGKGLEWVSAISGSDGSTYYADSVKGRFTISRDNSKNTLYLQMNSLRDEDTAVYYCARSHEANLVGDWWGQGTLVTVSSTSGQAGQHHHHHHGAYPYDVPDYAS
notes: as for B1

How the values were obtained:
[1] = target: T1, Fc Receptor-like 5 (FcRL5), full …; assay: phage clone screening on cells
Experimental: Once selected, positive scFv clones are further tested for their binding to FcRL5 (e.g., human FcRL5) on live 3T3 cell surfaces by flow cytometry. Briefly, phage clones are incubated with 3T3 cells over-expressing FcRL5. The cells are washed and then incubated with a mouse anti-M13 coat protein mAb. Cells are washed again and labeled with a PE-horse anti-mouse Ig prior to flow cytometry.
Phage′ display against FcRL5 was performed to enrich for scFv phage clones that bind to FcRL5 specifically. Screening was carried out on FcRL5 overexpressing 3T3 cells or 3T3 cells expressing FcRL1, 2, 3, 4 or 6 as a negative control (FIG. 2).

[2] = target: T2, FcRL2, overexpressed on 3T3 cells; assay: phage clone on 3T3-FcRL2 cells
SLAMF9 protein = SLAMF9 protein (UniProt Q96A28 19-236, limits assumed); assay: phage clone on SLAMF9 protein
[3] = target: T3, FcRL4, overexpressed on 3T3 cells; assay: phage clone on 3T3-FcRL4 cells
[4] = target: T4, FcRL6, overexpressed on 3T3 cells; assay: phage clone on 3T3-FcRL6 cells

Sequence of SLAMF9 protein (Q96A28 19-236 limits assumed): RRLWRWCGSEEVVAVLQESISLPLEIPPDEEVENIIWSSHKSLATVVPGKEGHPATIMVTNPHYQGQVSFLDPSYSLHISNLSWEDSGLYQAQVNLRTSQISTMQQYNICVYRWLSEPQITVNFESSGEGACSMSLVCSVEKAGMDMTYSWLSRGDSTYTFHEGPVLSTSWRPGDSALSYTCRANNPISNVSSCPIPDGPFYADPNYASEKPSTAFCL

Row | Binder | binding result [1] | binding result [2] | binding result (SLAMF9 protein) | binding result [3] | binding result [4]
1 | B1 | binds | no binding | no binding | no binding | no binding
2 | B2 | binds | no binding | no binding | no binding | no binding
3 | B3 | binds | no binding | no binding | no binding | no binding
4 | B4 | binds | no binding | no binding | no binding | no binding
5 | B5 | binds | no binding | no binding | no binding | no binding
6 | B6 | binds | no binding | no binding | no binding | no binding
7 | B7 | binds | no binding | no binding | no binding | no binding
8 | B8 | binds | no binding | no binding | no binding | no binding
